Source: patent publication US20150274826A1 (ARCH ONCOLOGY, published 2015)

T1: rat CD47 (rat, UniProt P97829 19-303)
T1 construct: whole, on cells; also called CD47 on rat RBCs
T1 sequence (looked up): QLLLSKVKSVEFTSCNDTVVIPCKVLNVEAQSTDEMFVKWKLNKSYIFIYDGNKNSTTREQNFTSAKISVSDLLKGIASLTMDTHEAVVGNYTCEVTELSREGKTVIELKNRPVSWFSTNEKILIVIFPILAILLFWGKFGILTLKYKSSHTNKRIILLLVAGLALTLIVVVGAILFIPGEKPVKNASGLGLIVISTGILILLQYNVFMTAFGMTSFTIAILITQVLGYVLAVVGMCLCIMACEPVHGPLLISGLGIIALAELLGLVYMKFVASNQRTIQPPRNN

T2: dog CD47 (dog, UniProt A0A8I3PM61 19-310)
T2 construct: also called CD47 on dog RBCs
T2 sequence: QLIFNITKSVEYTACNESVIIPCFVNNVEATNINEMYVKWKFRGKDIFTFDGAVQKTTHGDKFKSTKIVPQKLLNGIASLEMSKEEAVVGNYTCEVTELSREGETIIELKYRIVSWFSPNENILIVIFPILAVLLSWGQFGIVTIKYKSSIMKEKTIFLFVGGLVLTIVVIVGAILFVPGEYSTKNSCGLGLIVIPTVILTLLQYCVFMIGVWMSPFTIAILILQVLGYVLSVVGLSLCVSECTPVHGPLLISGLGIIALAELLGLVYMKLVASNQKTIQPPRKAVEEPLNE

T3: pig CD47 (pig, UniProt Q9GKE8 19-303)
T3 construct: whole, on cells; also called CD47 on porcine RBCs
T3 sequence (looked up): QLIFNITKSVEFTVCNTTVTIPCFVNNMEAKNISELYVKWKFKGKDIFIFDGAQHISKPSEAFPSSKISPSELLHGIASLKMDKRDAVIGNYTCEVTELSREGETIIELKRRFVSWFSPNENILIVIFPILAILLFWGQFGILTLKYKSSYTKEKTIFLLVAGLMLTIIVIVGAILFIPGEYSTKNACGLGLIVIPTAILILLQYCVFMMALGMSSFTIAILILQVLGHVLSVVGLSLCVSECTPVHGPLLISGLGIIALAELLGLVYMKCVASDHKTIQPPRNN

T4: mouse CD47 (mouse, UniProt Q61735 19-303)
T4 construct: whole, on cells; also called CD47 on mouse RBCs; CD47 on 4T1 cells
T4 sequence (looked up): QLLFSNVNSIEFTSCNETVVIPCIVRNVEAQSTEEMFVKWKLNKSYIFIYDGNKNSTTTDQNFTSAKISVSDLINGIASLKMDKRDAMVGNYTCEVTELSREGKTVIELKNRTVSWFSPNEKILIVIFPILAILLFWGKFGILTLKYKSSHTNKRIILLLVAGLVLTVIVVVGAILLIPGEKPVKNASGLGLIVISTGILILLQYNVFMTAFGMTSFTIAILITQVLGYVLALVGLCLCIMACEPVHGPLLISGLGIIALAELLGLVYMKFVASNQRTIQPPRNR


Experiments:
Assay in all cases: flow cytometry on RBCs, CHO supernatant 10 ng/ml
[1] = target: T5, human CD47 (human, UniProt Q08722 19-323)
T5 construct: whole, on cells; also called CD47 on human RBCs; CD47 on OV10 cells
T5 sequence (Q08722 19-323): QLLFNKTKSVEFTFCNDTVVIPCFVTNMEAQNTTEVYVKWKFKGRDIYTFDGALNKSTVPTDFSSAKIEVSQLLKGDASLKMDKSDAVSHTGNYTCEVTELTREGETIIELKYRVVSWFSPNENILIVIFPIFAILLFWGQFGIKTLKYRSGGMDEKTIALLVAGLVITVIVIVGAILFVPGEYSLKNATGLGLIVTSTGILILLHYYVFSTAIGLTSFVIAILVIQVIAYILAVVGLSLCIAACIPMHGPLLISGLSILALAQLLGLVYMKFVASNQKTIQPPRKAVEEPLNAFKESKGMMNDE
Procedure: (§1) RBCs are incubated for 60 minutes on ice with tissue culture supernatants containing the secreted humanized antibodies at a concentration of 10 ng/ml in a solution of phosphate buffered saline, pH 7.2, 2.5 mM EDTA (PBS+E), or with various concentrations of purified antibodies. Cells are then washed with cold PBS+E, and incubated for an additional hour on ice with FITC labeled donkey anti-human antibody (Jackson Immuno Research Labs, West Grove, Pa.; Catalogue #709-096-149) in PBS+E. Cells are then washed with PBS+E, and antibody binding is analyzed using a BD FACSAria Cell Sorter (Becton Dickinson) or a C6 Accuri Flow Cytometer (Becton Dickinson). Antibody binding is quantitated by comparison of mean fluorescence values relative to that of chimeric antibody >VxP037-01LC (SEQ ID NO:7))/>VxPO37-01HC (SEQ ID NO:57). The mean fluorescence value for each antibody is divided by the mean fluorescence value for the chimeric antibody.

[2] = target: T1, rat CD47
Procedure: as §1

[3] = target: T2, dog CD47
Procedure: as §1

[4] = target: T3, pig CD47
Procedure: as §1

[5] = target: T4, mouse CD47
Procedure: as §1

| Binder | mean fluorescence relative to chimeric antibody [1] [ratio] | mean fluorescence relative to chimeric antibody [2] [ratio] | mean fluorescence relative to chimeric antibody [3] [ratio] | mean fluorescence relative to chimeric antibody [4] [ratio] | mean fluorescence relative to chimeric antibody [5] [ratio] |
| --- | --- | --- | --- | --- | --- |
| Clone 2 (pVxK7b-037-hum02-LC / pVxK7b-037-hum02-HC) (antibody, human IgG1, kappa, V domains shown) VH: QVQLQESGPGLVKPSQTLSLTCTVSGYTFTNYYVFWVRQARGQRLEWIGDINPVNGDTNFNEKFKNRVTISADKSISTAYLQWSSLKASDTAMYYCARGGYTMDYWGQGTLVTVSS VL: DVVMTQSPLSLPVTLGQPASISCRSSQSLVHSNGNTYLHWYQQKPGQAPRLLIYKVSYRFSGVPSRFSGSGSGTEFTLTISSLQPDDFATYYCSQNTHVPRTFGQGTKVEIKR | 1 | 2.6 | 1 | 1.2 | 1.2 |
| Clone 15 (pVxK7b-037-hum15-LC / pVxK7b-037-hum15-HC) (antibody, human IgG1, kappa, V domains shown) VH: QVQLQESGPGLVKPSQTLSLTCTVSGYTFTNYYVFWVRQARGQRLEWIGDINPVNGDTNFNEKFKNRLTISKDTSKNQVVLTMTNMDPVDTATYYCARGGYTMDYWGQGTLVTVSS VL: AIQLTQSPSSLSASVGDRVTITCRSSQSLVHSNGNTYLHWYQQKPGQAPRLLIYKVSYRFSGVPSRFSGSGSGTEFTLTISSLQPDDFATYYCSQNTHVPRTFGQGTKVEIKR | 1 | 2.4 | 1.1 | 1.2 | 1.3 |
| Clone 6 (pVxK7b-037-hum06-LC / pVxK7b-037-hum06-HC) (antibody, human IgG1, kappa, V domains shown) VH: QVQLQESGPGLVKPSQTLSLTCTVSGYTFTNYYVFWVRQARGQRLEWIGDINPVNGDTNFNEKFKNRLTISKDTSKNQVVLTMTNMDPVDTATYYCARGGYTMDYWGQGTLVTVSS VL: DIQMTQSPSSLSASVGDRVTITCRSSQSLVHSNGNTYLHWYLQKPGQSPQLLIYKVSYRFSGIPARFSGSGSGTEFTLTISSLQSEDFAVYYCSQNTHVPRTFGQGTKVEIKR | 0.9 | 2.1 | 1.1 | 1.1 | 1.2 |
| Clone 19 (pVxK7b-037-hum19-LC / pVxK7b-037-hum19-HC) (antibody, human IgG1, kappa) heavy: not shown light: DVVMTQSPLSLPVTLGQPASISCRSSQSLVHSNGNTYLHWYQQKPGKAPKLLIYKVSYRFSGVPDRFSGSGSGTDFTLKISRVEAEDVGVYYCSQNTHVPRTFGQGTKVEIKRTVAAPSVFIFPPSDEQLKSGTASVVCLLNNFYPREAKVQWKVDNALQSGNSQESVTEQDSKDSTYSLSSTLTLSKADYEKHKVYACEVTHQGLSSPVTKSFNRGEC | 0.7 | 2.6 | 1.2 | 1.3 | 1 |
| Clone 3 (pVxK7b-037-hum03-LC / pVxK7b-037-hum03-HC) (antibody, human IgG1, kappa) heavy: not shown light: DVVMTQSPLSLPVTLGQPASISCRSSQSLVHSNGNTYLHWYQQKPGKAPKLLIYKVSYRFSGVPDRFSGSGSGTDFTLKISRVEAEDVGVYYCSQNTHVPRTFGQGTKVEIKRTVAAPSVFIFPPSDEQLKSGTASVVCLLNNFYPREAKVQWKVDNALQSGNSQESVTEQDSKDSTYSLSSTLTLSKADYEKHKVYACEVTHQGLSSPVTKSFNRGEC | 0.7 | 1.7 | 0.9 | 0.9 | 0.9 |

Next, values leading:

| mean fluorescence relative to chimeric antibody [1] [ratio] | mean fluorescence relative to chimeric antibody [2] [ratio] | mean fluorescence relative to chimeric antibody [3] [ratio] | mean fluorescence relative to chimeric antibody [4] [ratio] | mean fluorescence relative to chimeric antibody [5] [ratio] | Binder |
| --- | --- | --- | --- | --- | --- |
| 1.1 | 2.8 | 1 | 1.4 | 1.2 | Clone 22 (pVxK7b-037-hum22-LC / pVxK7b-037-hum22-HC) (antibody, human IgG1, kappa, V domains shown) VH: QVQLQESGPGLVKPSQTLSLTCTVSGYTFTNYYVFWVRQARGQRLEWIGDINPVNGDTNFNEKFKNRLTISKDTSKNQVVLTMTNMDPVDTATYYCARGGYTMDYWGQGTLVTVSS VL: EIVLTQSPATLSVSPGERATLSCRSSQSLVHSNGNTYLHWYQQKPGQAPRLLIYKVSYRFSGVPSRFSGSGSGTDFTFTISSLEAEDAATYYCSQNTHVPRTFGQGTKVEIKR |
| 1.2 | 2.8 | 1.1 | 1.4 | 1.2 | Clone 21 (pVxK7b-037-hum21-LC / pVxK7b-037-hum21-HC) (antibody, human IgG1, kappa, V domains shown) VH: QVQLQESGPGLVKPSQTLSLTCTVSGYTFTNYYVFWVRQARGQRLEWIGDINPVNGDTNFNEKFKNRLTISKDTSKNQVVLTMTNMDPVDTATYYCARGGYTMDYWGQGTLVTVSS VL: AIQLTQSPSSLSASVGDRVTITCRSSQSLVHSNGNTYLHWYQQKPGQAPRLLIYKVSYRFSGVPDRFSGSGSGTDFTLKISRVEAEDVGVYYCSQNTHVPRTFGQGTKVEIKR |
| 1.1 | 3.2 | 1.3 | 1.4 | 1.5 | Clone 14 (pVxK7b-037-hum14-LC / pVxK7b-037-hum14-HC) (antibody, human IgG1, kappa) heavy: not shown light: DVVMTQSPLSLPVTLGQPASISCRSSQSLVHSNGNTYLHWYQQKPGKAPKLLIYKVSYRFSGVPDRFSGSGSGTDFTLKISRVEAEDVGVYYCSQNTHVPRTFGQGTKVEIKRTVAAPSVFIFPPSDEQLKSGTASVVCLLNNFYPREAKVQWKVDNALQSGNSQESVTEQDSKDSTYSLSSTLTLSKADYEKHKVYACEVTHQGLSSPVTKSFNRGEC |
| 1.3 | 1.9 | 1.1 | 1.7 | 1.5 | Clone 20 (pVxK7b-037-hum20-LC / pVxK7b-037-hum20-HC) (antibody, human IgG1, kappa) heavy: not shown light: DIVMTQTPLSLPVTPGEPASISCRSSQSLVHSNGNTYLHWYLQKPGQSPQLLIYKVSYRFSGVPDRFSGSGSGTDFTLKISRVEAEDVGVYYCSQNTHVPRTFGQGTKVEIKRTVAAPSVFIFPPSDEQLKSGTASVVCLLNNFYPREAKVQWKVDNALQSGNSQESVTEQDSKDSTYSLSSTLTLSKADYEKHKVYACEVTHQGLSSPVTKSFNRGEC |
| 1.2 | 3.3 | 1.1 | 1.7 | 1.4 | Clone 23 (pVxK7b-037-hum23-LC / pVxK7b-037-hum23-HC) (antibody, human IgG1, kappa) heavy: not shown light: DIVMTQTPLSLPVTPGEPASISCRSSQSLVHSNGNTYLHWYQQKPGKAPKLLIYKVSYRFSGVPDRFSGSGSGTDFTLKISRVEAEDVGVYYCSQNTHVPRTFGQGTKVEIKRTVAAPSVFIFPPSDEQLKSGTASVVCLLNNFYPREAKVQWKVDNALQSGNSQESVTEQDSKDSTYSLSSTLTLSKADYEKHKVYACEVTHQGLSSPVTKSFNRGEC |
| 1 | 1 | 1 | 1 | 1 | chimeric antibody VxP037-01LC-Pro/VxP037-01HC-Pro (antibody, human IgG1, kappa, V domains shown, also called Chimera; VxP037-01LC/VxP037-01HC) VH: EVQLQQFGAELVKPGASMKLSCKASGYTFTNYYVFWVKQRPGQGLEWIGDINPVNGDTNFNEKFKNKATLTVDKSSTTTYLQLSSLTSEDSAVYYCTRGGYTMDYWGQGTLVTVSS VL: DVVMTQTPLSLSVSLGDQASISCRSSQSLVHSNGNTYLHWYLQKPGQSPKLLIYKVSYRFSGVPDRFSGSGSGTDFTLKISRVEAEDLGVYFCSQNTHVPRTFGQGTKVEIKR |
